Experimental data published in paper PMC3693578 (Molecular cell, 2012).

Molecular target: T1, TSC1 (hamartin), endogenous human (human (endogenous in HeLa), UniProt Q92574 1-1164)
T1 sequence (looked up): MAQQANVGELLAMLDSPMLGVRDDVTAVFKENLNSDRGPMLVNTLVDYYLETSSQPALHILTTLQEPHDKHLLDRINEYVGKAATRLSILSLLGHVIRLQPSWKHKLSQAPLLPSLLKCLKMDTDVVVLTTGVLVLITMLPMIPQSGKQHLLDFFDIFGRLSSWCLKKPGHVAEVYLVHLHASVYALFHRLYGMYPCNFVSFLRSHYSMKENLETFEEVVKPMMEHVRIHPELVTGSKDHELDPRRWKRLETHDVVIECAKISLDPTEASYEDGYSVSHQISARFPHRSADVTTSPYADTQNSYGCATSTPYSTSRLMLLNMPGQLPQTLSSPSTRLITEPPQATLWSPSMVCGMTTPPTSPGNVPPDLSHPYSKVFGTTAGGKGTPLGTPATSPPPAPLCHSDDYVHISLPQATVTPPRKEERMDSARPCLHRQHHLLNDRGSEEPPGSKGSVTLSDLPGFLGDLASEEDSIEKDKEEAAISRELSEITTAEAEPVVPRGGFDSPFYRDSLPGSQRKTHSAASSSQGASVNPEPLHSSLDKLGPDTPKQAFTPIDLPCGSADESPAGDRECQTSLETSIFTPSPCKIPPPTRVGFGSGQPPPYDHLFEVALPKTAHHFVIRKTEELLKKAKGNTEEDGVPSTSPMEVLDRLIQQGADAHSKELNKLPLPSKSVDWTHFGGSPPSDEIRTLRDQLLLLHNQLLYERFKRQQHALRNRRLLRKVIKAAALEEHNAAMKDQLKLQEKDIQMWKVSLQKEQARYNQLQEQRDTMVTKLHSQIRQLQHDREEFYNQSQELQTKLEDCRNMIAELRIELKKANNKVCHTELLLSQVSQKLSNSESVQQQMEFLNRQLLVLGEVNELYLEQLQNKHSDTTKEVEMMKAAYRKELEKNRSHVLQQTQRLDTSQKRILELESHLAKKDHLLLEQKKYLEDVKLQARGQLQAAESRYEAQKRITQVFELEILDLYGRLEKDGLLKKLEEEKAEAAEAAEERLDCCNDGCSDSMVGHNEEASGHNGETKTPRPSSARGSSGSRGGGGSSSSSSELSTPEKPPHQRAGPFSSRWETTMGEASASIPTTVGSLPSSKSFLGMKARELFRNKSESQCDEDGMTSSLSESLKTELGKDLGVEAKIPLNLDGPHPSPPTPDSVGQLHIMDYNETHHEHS
Assay: affinity purification with mass spectrometry

B1: TSC2 (tuberin), endogenous human (natural protein)
chain: not shown
  stoichiometry N: ~1
